Laboratory results reported in a protein production outcome set (Wang et al. 2014).

Experiment: label from the status in PepcDB records
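Note: failed if final PepcDB status was selected cloned or expressed and not failed if soluble or beyond.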

Sequence | protein production
MSPQSPSNSSISTDDQAGKNPAAAFGPNEWLVDEIYQQYLQDPNSVDRAWWDFFADYKPGAAAASAPAGTAAAGAAETTTPAPAAPTAAAPAAPAAPAPAAPAPAPAAPAPAAAPAVPKPAAAAPAPAAAKPAAAAPAQPKAAAATEAAEGPTFVPLRGPAAAVAKNMNASIEVPTATSVRAVPVKLLFDNRIVINNHLKRARGGKISFTHLIGYAMVQAIKAMPSMNWHYAEKDGKPTLVKPAHVNFGLAIDLVKPNGDRQLVVAGIKKAETLNFFEFWQAYEDIVRRARDGKLTMDDFTGVTVSLTNPGGLGTVHSVPRLMPGQSVIMGVGSMDYPAEFQGTSQDTLNKLGISKVMTLTSTYDHRVIQGAASGEFLRIVANFLLGEGGFYDEIFEALRIPYEPVRWLKDIDASHDDDVTKAARVFELIHSYRVRGHVMADTDPLEYRQRKHPDLDITEHGLTLWDLEREFAVGGFAGKSLMKLRDILGVLRDSYCRTTGIEFMHIQDPKQRKWIQDRIERSHSKPEREEQLRILRRLNAAEAFETFLQTKYVGQKRFSLEGGESVIPLLDAVIDSAAESRLDEVVIGMAHRGRLNVLANIVGKSYAQIFREFEGNLDPKSMHGSGDVKYHLGASGTFTGLDGEQIKVSLAANPSHLETVDPIIEGIARAKQDIINKGGTDFTVLPVALHGDAAFAGQGVVAETLNMSQLRGYRTGGTVHIVINNQVGFTAAPESSRSSMYATDVARMIEAPIFHVNGDDPEAVVRVARLAFEFRQAFNKDVVIDLICYRRRGHNESDNPAFTQPLMYDLIDKKRSVRKLYTESLIGRGDITLEEAEQALQDFQGQLEKVFTEVREAISTPGEAPAPEPQPEFPVAVPTAVSQEVVKRIAESQVNIPDHVTVHPRLLPQLQRRAAMIEDDTIDWGMGETLAIGSLLLEGTPVRLSGQDSRRGTFGQRHAVLIDRVTGEDFTPLQYLADDQARLNVYDSLLSEYAVMGFEYGYSLARPDALVMWEAQFGDFVNGAQTVVDEYISAAEQKWGQTSGVTLLLPHGYEGQGPDHSSARIERFLQLCAQNNMTVAQPTLPSNYFHLLRWQVHNPHHKPLVVFTPKSMLRLKAAASKTEEFTTGAFRPVIGDDTVDAAAVRKVVFCAGKLYYDLEAERKKRGATDAAAAETAIIRLERLYPLPGAELQAEIAKYPNAEKYLWAQEEPANQGAWPFIALNLIDHLDLAVGADVPHGERLRRISRPHSSSPAVGSAKRHQAEQEQLVREVFEA | failed
MEQGMSKRILVPVAHGSEEMETVIIVDTLVRAGFQVTMAAVGDKLQVQGSRGVWLTAEQTLEACSAEAFDALALPGGVGGAQAFADSTALLALIDAFSQQGKLVAAICATPALVFAKQQKFVGARMTCHPNFFDHIPSERLSRQRVCYYATQHLLTSQGPGTALEFALAMIALLAGVELAQHVAAPMVLHPQQLTELSGFIDAQS | not failed
MIDVKSIILIVLDGLGDRPGEILGYRTPLQAAYHPNMNRMASLGMTGLMHPISPGIRSGSDTSHMSLLGYDPRVYYQGRGPFEALGLHMDMKPGDLAFRANFATNRDGKIIDRRAGRINAGNDQLASAISIDIGNYKFRVKSGVEHRAALVVSGPNLSDKISDSDPHSEGKPPEPIRPLDPSADSTAKIMNEYLKRIREILRDHPVNVEREKNGQIPGNELLIRSAGKVPDIPSFQEKNGITGACVVGSPWLKGLCRLLGMAVIDVPGAAGTINSNYTGKIKTAIDASKRYDFVLVNIKATDVAGHDGDYELKRRVIEDIDIAMEPLLGQSDRIVVAITGDHSTPCSVKDHSGDPVPIVFYTDGIYSDDVKLFDEVSAMKGALRITTQDVLNILMEMAGRAEKFGS | not failed
MNAVHFGAGNIGRGFIGEILAKNGFHITFVDVNETIIQALKERKSYTIELADASHQQINVENVTGLNNMTEPEKVVEAIAEADLVTTAIGPNILPRIAELIAQGIDARAEANCQKPLDIIACENMIGGSTFLAEEVAKYLKNPAYAEQWIGFPDAAVDRIVPLQKHEDPLFVQVEPFCEWVIDDTNRKAKEIQLEGVHYVADLEPYIERKLFSVNTGHATVAYTGALLGYQTIDEAMQDALVVAQLKSVLQETGKLLVAKWNFDEQEHAAYIEKIIQRFQNKYISDAITRVARTPIRKLGAQERFIRPIRELQERNLVSPHLLAMIGIVFNYHDPEDEQSRQLQEMLDQESVDTVIAEVTGIEDPETVKNIKQNVERYARPQVA | failed
MVGGGSKHVGEGSKPRATKDDAYAYLRAVRAKFHNDSKKYDDFVAVMTNFKARRIDRDGCIKEVEQLLKGHRDLISGFNAFLPKCLEIKNYYFGAGEDLEVVYTAKRKLLARSVTKRSSSSSSSSSVYFLFRSCEII | failed
MIKGTGHMIVNIANDRGMSIDSIRKTIKESVLIAYKKYFGSNENAFIKFDDDTGDLSVYAKKKIVKEVKDSLLEILEKDISKENIVEGDYAYIEINPKVFDRLSIQVAKQRTKNDLQGIEDNEILSEFKSKLNKVVIGYVQQNRNGDLYVNLGLEHHHHHH | not failed
MLGVILLYVGMVLMSNGLHRLEGIPDKSNVVMNIFTGGLGLILNIIVIAYGACTGQGAEWFYGSATGLLFAFTYLYSAINTIFDFDQRLYGWFSLFVAINTLPAGILCLTSGYGGNAWYGIIWFLWGVLWLTAFIEINLKKNLGKFVPYLAIFEGIVTAWIPGLLMLWGKW | failed
MGHHHHHHSHMFASCHCVPRGRRTMKMIHFRSSSVKSLSQEMRCTIRLLDDSEISCHIQRETKGQFLIDHICNYYSLLEKDYFGIRYVDPEKQRHWLEPNKSIFKQMKTHPPY | failed
MFVELNNLLNTTPDRAEQGKLTLLCDAKTDGSFLVHHFLSFYLKANCKVCFVALIQSFSHYSIVGQKLGVSLTMARERGQLVFLEGLKSAVDVVFQAQKEPHPLQFLREANAGNLKPLFEFVREALKPVDSGEARWTYPVLLVDDLSVLLSLGMGAVAVLDFIHYCRATVCWELKGNMVVLVHDSGDAEDEENDILLNGLSHQSHLILRAEGLATGFCRDVHGQLRILWRRPSQPAVHRDQSFTYQYKIQDKSVSFFCQRNVSCCSVT | not failed
SVFPQQTGQLAELQPQDRAGARASWMPMFQRRRRRDTHFPICIFCCGCCHRSKCGMCCKT | failed
MSLSDDPMASIKLLNLERENSAIAQYQSNIANLKTTLSSQETHLDSVSESLKSMRDIVLWGANGSLTDQDRSGMITELKSYRDSIESSFNAQDEEGHFLFSGTKTDTAALNKSSGAYVVEGNSDVRVVTVAKGVTMDSNMTAQEILDIGGGKNVLNQIDALIAEFEKPSPNFQAEVDASLNAIDDTMANVLGAMTEIGGRHNNLDLMDGAHSENKLFVDKVSGDLSALDYGEGHHHHHH | not failed
MSLDSALRSRIETLLHSNRVVLFMKGRPGMPQCGFSAKAAGILQALGVEYAHVNVLDDQEIREGIKRYGDWPTIPQLYIDGELIGGSDIVSQMYENGELSTLLGVAAPDLTPPSITITPTAVEMLKGTLANAPGSTLALSIDSRFQPTFELAPINTQAIAAEYNGLRVQFDLASARRAEGITIDWVDDIRGQGLVIDNPNAPQPIQELSPGDAAAQVDAGVLTLVDVRPADERAVASVAVPFRTMDGGERAVLEQLPKGTPLAFLCHHGGRSLQAAEHFRSLGFTSIYNIGGGIDAWSTQVDPGVPKY | failed
MKRKVQVKNITIGEGRPKICVPIIGKNKKDIIKEAKELKDACLDIIEWRVDFFENVENIKEVKEVLYELRSYIHDIPLLFTFRSVVEGGEKLISRDYYTTLNKEISNTGLVDLIDVELFMGDEVIDEVVNFAHKKEVKVIISNHDFNKTPKKEEIVSRLCRMQELGADLPKIAVMPQNEKDVLVLLEATNEMFKIYADRPIITMSMSGMGVISRLCGEIFGSALTFGAAKSVSAPGQISFKELNSVLNLLHKSIN | not failed
MFEKQFNHRTLETSLGPVEIEGPVTSQILATYKLDPGLTAFRQPAEQHEALVEIAALEEGRIIIARQGNDIIGYVTFLYPDPYETWSEGNNPYILELGAIEVAARFRGQQIGKKLLEVSMLDPAMEHYLILTTEYYWHWDLKGSGLSVWDYRKIMEKMMNHGGLVFFPTDDPEIASHPANCLMARIGKHVAPEVVAHFDALRLRRRFMYD | not failed
MFSNQYIQQRIHKANSLREEGKNPYQNGLKRSLTNAAFLEKYAYVKGLEEPKDKEKCESIVGRVKLLRLMGKACFIKVEDESTILQVYVSQNELNDEFKSLKKHLEVGDIVLVKGFPFATKTGELSIHALEFHILSKTIVPLPEKFHGLSDIELRYRQRYLDLIVNPSVKDVFKKRSLIVSSVRKFFEMEGFLEVETPMMHPIPGGANARPFITYHNALEVERYLRIAPELYLKRLIVGGFEAVFEINRNFRNEGMDHSHNPEFTMIEFYWAYHTYEDLIELSKRLFDYLLKTLNLDSKIIYNDMEVDFNQTSVISYLDALETIGGISKDILEKEDRLLAYLLEQGIKVEPNLTYGKLLAEAFDHFVEHQLINPTFVTQYPIEISPLARRNDSNPNIADRFELFIAGKEIANGFSELNDPLDQLERFKNQVAEKEKGDEEAQYMDEDYVWALAHGMPPTAGQGIGIDRLVMLLTGAKSIKDVILFPAMRPVKNDFNVESEE | failed
KEALEALVPVTIEVEVPFDLHRYVIGQKGSGIRKMMDEFEVNIHVPAPELQSDIIAITGLAANLDRAKAGLLERVKELQAEQEDRALRSFK | not failed
MTKAPSLAFLCIQSLKIQLLESDNPIPDLYELPSELLDGIVAHLPALALQKFQTNMPFHCLDSYESGDDCCLITGRKRARNDVLGSSWKLLFKLRWPDFVDRVESPADWQQLYWEKHLQNCVDEAAEVALRPTFSGRICSINVSDNILRYICHEEHIMTCQNCVCKELSFHFQTFGPYLRCLRLLNVLCVTETSELLRTSKLRSLVLRWIRSEKHVEPLCKLLIQSRETLTSLELIHCKLSLSSISAICTSLHEKGIHTTGMQRFCIKTSSIEIDPLAAPSAFVSFLMSVRTLHSLHFGDSNLDRYFARMVFSTLLDSSSNLSSLDLSENNISGWLSTFSCKSVVGSLSSGKSLQSLCKLNLRGNELDRYDAENLAHALLHMPGLESLDLSGNPIEDSGIRSLISYFTKNPDSRLADLNLENCELSCCGVIEFLDTLSMLEKPLKFLSVADNALGSEVAEAVVNSFTISIESLNIMGIGLGPLGFLALGRKLEKVSKKLLSINISKNRGGLETARFLSKLIPLAPKLISIDASYNLMPPEALLMLCDSLRTAKGDLKRLDMTGNSCISHEADHSSLLHEFQHNGEPIFVLPSSSVSHVPYDDDP | failed
MSRDPTYTINEHDLSFADGRFYVTFKADKSSETVRLNSSCLGNTIIKKLQVEDDNTMHDFVKPKVTTQQAFGLAQQVKELDLQLKDPKSDLWGKIKFNNKAMLVEYANKEMSSAIAQSAEQILLQVKSIDDERYSKFEQTLNGIKQTVKSESVESARTQLASMFDSRISGLDGKYSRLSQTIDSLSSRLDDGVGNYSTLSQKVSGIDLRVSNAANDVSRLSQTAQGLQSQITNANQNYSSLSQTVQGLQTTVRDNQSNATSRINQLSDLISTKVSKGDVETTIAQSYDKIAFAIRDKLPASKMSGSEIISAINLDRSGVKITGKNITLDGNSYISNAVIKDAHIANMDAGKINTGYLNANRIATEAITGEKIKMDYAFFNKLTANEGYFRTLFAKDIFATSVQSVTLSASKITGGVLAATNGASQWDLNNANMTFNRDATINFNSKNNALVRKDGTHTAFVHFSNATPKGYRGSALYASIGITSSGDGIDSASSGRFAGLRSFRYATGYNHTAAVDQTELYGDNVLIADDFNINRGFKFRPDKMEKVLDMNDLYAAVVALGRCWGHLANVGWNTAHSNFTSAVSRELNNYITKI | failed
